This note sets out measurements from US20060140983A1.

This experiment has as its target MHC class I (HLA-ABC) on Me275 and Me290 melanoma cells. Put plainly: cell-based or functional assay.

Turning to “purified mouse anti-human HLA-ABC mAb (clone W6/32, DAKO) (antibody)”, the inhibition of specific lysis (4 hour 51Cr release assay) was greater than 60% and the specific lysis with W6/32 mAb (4 hour 51Cr release assay, E:T ratio 15:1) was 4 % lysis.
